# PMC7824274, “Separation of Coiled-Coil Structures in Lamin A/C Is Required for the Elongation of the Filament” (Cells, 2020)
# T1: His-tagged lamin A/C 250-400 fragment, wild type (human, UniProt P02545 250-400)
# T1 construct: lamin A/C, human, residues 250-400 (C-terminal part of coil 2); pProEx-HTa vector: a TEV protease cleavage site stands between the His-tag and the lamin residues; also called His-lamin 250-400 WT; source: E. coli BL21 (DE3), purified (cobalt-Talon, HiTrap Q, SEC); not shown: His-tag, N-terminal, kept
# T1 sequence (looked up): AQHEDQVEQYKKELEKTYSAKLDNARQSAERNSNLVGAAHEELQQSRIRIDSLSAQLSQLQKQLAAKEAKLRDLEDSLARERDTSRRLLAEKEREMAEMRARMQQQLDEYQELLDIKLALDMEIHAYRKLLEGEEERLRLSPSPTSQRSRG
# T2: His-tagged lamin A/C 250-400 fragment, L362C (human, UniProt P02545 250-400, L362C)
# T2 construct: lamin A/C, human, residues 250-400 with L362C; also called His-lamin 250-400 L362C; source: E. coli BL21 (DE3), purified (cobalt-Talon, HiTrap Q, SEC); not shown: His-tag, N-terminal, kept
# T2 sequence (looked up): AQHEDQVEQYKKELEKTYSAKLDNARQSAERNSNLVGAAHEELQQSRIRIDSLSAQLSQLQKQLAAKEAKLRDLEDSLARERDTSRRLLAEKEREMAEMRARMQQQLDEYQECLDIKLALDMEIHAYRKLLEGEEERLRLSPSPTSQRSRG
# Experiments:
# [1] = biological target: T1, His-tagged lamin A/C 250-400 fragment, …; experiment: pull-down; His-tagged lamin 250-400 fragments on Ni-NTA resin with the lamin 1-125 fragment; nonreducing (oxidized) condition; SDS-PAGE; settings: both partners purified
# [2] = biological target: T2, His-tagged lamin A/C 250-400 fragment, …; experiment: pull-down; His-tagged lamin 250-400 fragments on Ni-NTA resin with the lamin 1-125 fragment; reducing condition; SDS-PAGE; settings: both partners purified
binder,measurement,setting,value
"lamin A/C 1-125 fragment, wild type, prey of Figure 6b (domain or fragment, human, UniProt P02545 1-125, looked up, the pull-down methods say that preys were His-tag cleaved lamin proteins; the purification paragraph names TEV cleavage only for lamin 250-400; also called coil 1a fragment; source: E. coli BL21 (DE3), purified (cobalt-Talon, HiTrap Q, SEC); not shown: His-tag, N-terminal, cleaved) METPSQRRATRSGAQASSTPLSPTRITRLQEKEDLQELNDRLAVYIDRVRSLETENAGLRLRITESEEVVSREVSGIKAAYEAELGDARKTLDSVAKERARLQLELSKVREEFKELKARNTKKEG",binding result,[1],binds
same,binding result,[2],binds
